Laboratory results published in patent US20200325187A1 (Genentech, published 2020).
Like-named read-outs stand apart in the source and are kept apart here.

Assays:
[1] = tested on: EETI-II
[2] = target: T1, hVEGF-A (8-109) (human), P15692; test: spot phage ELISA; conditions: remark: other sources report otherwise
T1 chain: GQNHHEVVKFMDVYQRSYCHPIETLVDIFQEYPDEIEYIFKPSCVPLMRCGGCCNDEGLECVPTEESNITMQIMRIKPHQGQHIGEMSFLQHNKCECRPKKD

[3] = target: T2, hVEGF-A Y21A (human, UniProt P15692-4 34-135, Y21A); test: SPR
T2 construct: position probably counted on the mature protein
T2 sequence (looked up): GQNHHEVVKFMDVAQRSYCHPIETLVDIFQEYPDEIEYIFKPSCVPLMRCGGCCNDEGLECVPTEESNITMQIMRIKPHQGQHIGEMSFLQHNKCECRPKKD
Procedure: (§1) Depending on the format of the assay either a streptavidin sensor (SA) or a dextran-coated (CM5) sensor was utilized as described below.
(§2) Reaction was then quenched by addition of 10 molar excess of Glycine pH 8.0 and the sample was buffer exchanged into PBS using an Amicon 0.5 mL 3000 MWCO ultra-centrifugal filters (EMD Millipore). The biotinylation state of the protein was verified by LC-MS analysis. Biotinylated VEGF-A was then captured on the surface until a resonance unit (RU) signal of about ˜400. For immobilization of VEGF-A on CM5 sensor, the surface was first activated with a mixture of N-ethyl-N′-(3-dimethylaminopropyl)carbodiimide hydrochloride and N-hydroxysuccinimide (EDC/NHS) according to the supplier instructions. VEGF-A was then diluted into coupling buffer (0.1 M Acetate Buffer, pH 5.0) and injected until the signal reached about ˜400 RU followed by a wash with 1 M ethanolamine pH 8.0 to quench remaining activated sites.

[4] = target: T3, hVEGF-A Q89A (human, UniProt P15692-4 34-135, Q89A); test: SPR
T3 construct: position probably counted on the mature protein
T3 sequence (looked up): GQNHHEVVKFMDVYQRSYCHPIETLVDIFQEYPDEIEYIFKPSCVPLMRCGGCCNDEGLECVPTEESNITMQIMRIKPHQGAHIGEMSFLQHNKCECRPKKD
Procedure: as §1, §2

[5] = target: T4, hVEGF-A K48A (human, UniProt P15692-4 34-135, K48A); test: SPR
T4 construct: position probably counted on the mature protein
T4 sequence (looked up): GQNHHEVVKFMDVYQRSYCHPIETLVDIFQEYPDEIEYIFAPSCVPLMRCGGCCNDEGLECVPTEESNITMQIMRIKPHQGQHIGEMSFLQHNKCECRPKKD
Procedure: as §1, §2

[6] = target: T5, hVEGF-A (human, UniProt P15692-4 27-191, limits assumed); test: SPR
T5 construct: also called human VEGF-A; WT
Procedure: as §1, §2

[7] = target: T6, hVEGF-A (8-109) (human, UniProt P15692 214-315); test: SPR
T6 sequence (looked up): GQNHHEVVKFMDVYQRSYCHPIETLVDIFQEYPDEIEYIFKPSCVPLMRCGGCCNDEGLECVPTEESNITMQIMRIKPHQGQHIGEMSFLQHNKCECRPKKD
Procedure: as §1, §2

[8] = target: T6, hVEGF-A (8-109); test: spot phage ELISA
Procedure, shortened: (§3)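 Phage clones from four selection rounds were grown overnight at 37 °C with M13-KO7 helper phage. Bound phage was detected with anti-M13-HRP and TMB, with binding to BSA alone run in parallel as background.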

[9] = target: T5, hVEGF-A; test: cell-based or functional assay
[10] = target: T5, hVEGF-A; test: phage competition ELISA, soluble CKP
[11] = target: T5, hVEGF-A; test: cell-based or functional assay; remark: listed apart in the source
[12] = target: T7, rat VEGF-A (rat, UniProt P16612-2 27-190, limits assumed); test: SPR
T7 construct: also called rVEGF
T7 sequence (looked up): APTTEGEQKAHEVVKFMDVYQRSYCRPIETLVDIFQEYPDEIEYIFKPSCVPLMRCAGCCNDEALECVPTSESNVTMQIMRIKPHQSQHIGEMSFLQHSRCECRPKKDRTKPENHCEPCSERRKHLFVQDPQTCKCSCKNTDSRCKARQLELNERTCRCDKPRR
Procedure: as §1, §2

[13] = target: T8, mouse VEGF-A 164 (mouse, UniProt Q00731-2 27-190); test: SPR
T8 construct: also called mouse 164
T8 sequence (looked up): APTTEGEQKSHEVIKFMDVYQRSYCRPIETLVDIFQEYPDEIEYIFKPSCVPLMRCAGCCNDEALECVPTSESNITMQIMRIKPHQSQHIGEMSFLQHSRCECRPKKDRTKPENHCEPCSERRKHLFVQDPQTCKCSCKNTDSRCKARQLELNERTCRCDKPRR
Procedure: as §1, §2

[14] = target: human VEGF-A 165 (human, UniProt P15692-4 27-191); test: SPR
Procedure: as §1, §2

[15] = target: T9, rabbit VEGF-A (rabbit, UniProt G1T1L9 1-398); test: SPR
T9 sequence: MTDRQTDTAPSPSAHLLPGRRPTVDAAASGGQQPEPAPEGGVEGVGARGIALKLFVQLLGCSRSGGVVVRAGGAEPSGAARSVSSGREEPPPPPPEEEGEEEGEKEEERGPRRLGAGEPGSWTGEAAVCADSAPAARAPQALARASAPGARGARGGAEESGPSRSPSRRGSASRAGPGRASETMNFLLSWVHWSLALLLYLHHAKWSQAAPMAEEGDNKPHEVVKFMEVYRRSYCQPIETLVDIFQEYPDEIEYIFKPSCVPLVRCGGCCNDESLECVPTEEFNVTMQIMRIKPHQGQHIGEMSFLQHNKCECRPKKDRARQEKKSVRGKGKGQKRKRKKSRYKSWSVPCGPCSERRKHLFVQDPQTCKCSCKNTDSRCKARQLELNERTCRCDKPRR
Procedure: as §1, §2

[16] = target: T6, hVEGF-A (8-109); test: SPR; remark: listed apart in the source
Procedure: as §1, §2

[17] = target: T5, hVEGF-A; test: KDR-VEGF competition ELISA
[18] = target: T6, hVEGF-A (8-109); test: spot phage ELISA; remark: listed apart in the source
Procedure, shortened: as §3

[19] = target: T5, hVEGF-A; test: cell-based or functional assay; remark: listed apart in the source

Chain of human VEGF-A 165 (P15692 other isoform, or with tags, fused parts or gaps limits assumed): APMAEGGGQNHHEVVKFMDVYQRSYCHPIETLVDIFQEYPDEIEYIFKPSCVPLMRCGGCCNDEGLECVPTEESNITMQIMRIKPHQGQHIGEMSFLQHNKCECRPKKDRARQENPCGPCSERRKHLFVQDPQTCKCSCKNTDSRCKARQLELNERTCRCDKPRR
Chain of EETI-II (chain, as listed by the source): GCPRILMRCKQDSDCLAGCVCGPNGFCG

Molecule: trypsin
- trypsin protease activity, peptide substrate cleavage assay [1]: Unlike EETI-II, ... do not inhibit trypsin protease activity

Molecule: GCQRTQPFWGCKQDSDCLAGCVCRWYQSCG (designed binder) [VEGF_CKP9.22]
- ELISA [2]: 1.2
- S/N vs BSA [2]: 17.2

Molecule: GCDVMQPYWGCKQDSDCLAGCVCHWYNSCG (designed binder, also called EM63) [VEGF_CKP9.63]
- Kd [3]: 585 nM
- Kd [4]: 2000 nM
- Kd [5]: 28.4 nM
- Kd [6]: 100 nM
- Kd [7]: 100 nM
- ELISA [8]: 2
- S/N vs BSA [8]: 29.7
- Cellular IC50 [9]: 140 nM
- IC50 [10]: 146 nM
- Cellular IC50 [11]: 140 nM
- Kd [12]: 524 nM
- Kd [13]: 289 nM
- Kd [14]: 382 nM
- Kd [15]: 311 nM
- Kd [16]: 281 nM
- IC50 [17]: 10.8 nM

Molecule: GCDVMQPYWGCGPDIDCLAGCVCHWYNSCG (designed binder, also called L2.9.63.12) [VEGF_CKP9.63.12]
- Kd [3]: 9.84 nM
- Kd [4]: 36.5 nM
- Kd [5]: 0.33 nM
- Kd [6]: 1.07 nM
- ELISA [18]: 2.6
- S/N vs BSA [18]: 39.9
- Cellular IC50 [11]: 1.83 nM
- Cellular IC50 [19]: 1.83 nM
- FOLD [..] [..] TO VARIANT 9.54.90 [19]: 0.74 fold
- Kd [12]: 5.74 nM
- Kd [13]: 13.1 nM
- Kd [14]: 4.32 nM
- Kd [15]: 2.54 nM
- Kd [16]: 3.2 nM
- IC50 [17]: 0.7 nM
